1 protein from publication PMC4396695, “Structure of the Ribosomal Oxygenase OGFOD1 Provides Insights into the Regio- and Stereoselectivity of Prolyl Hydroxylases” (Structure(London, England:1993), 2015) can be followed below.

This series deals with the molecule itself. As to the kind of experiment: native gel or EMSA; non-denaturing PAGE of OGFOD1 and of Tpa1p, each run alone; conditions not given.

B1: Tpa1p (termination and polyadenylation protein 1) (enzyme, S. cerevisiae, UniProt P40032 1-644, looked up)
chain: MKRKTAEVKGEKERNSKQISLEEDKIKGMFNPKIWDKTFQDGLKKEIEDSQPYNWGTIHELVNDDLLRAVRKEIETEIHFTKKETDIYRVNQSGDLANLSGLDWDDLSRLPNLFKLRQILYSKQYRDFFGYVTKAGKLSGSKTDMSINTYTKGCHLLTHDDVIGSRRISFILYLPDPDRKWKSHYGGGLRLFPSILPNVPHSDPSAKLVPQFNQIAFFKVLPGFSFHDVEEVKVDKHRLSIQGWYHIPQVGEEGYIPGEEEAWVRNNTSTLAQIESNVLEDFEFPKDERNILSFHEVKHFEKMLKGDAGAKTDNTPKESMTSVISDSVKLSEAEFTYLSQYISPEHLSSKGIEKLQKQFVENSSLQIESFLNDDKSELLKKVIKQKELEQECPYHSKDVKAPWKTAIPPHKARYLYIDGKEYRNFQTEADILEALNNNDLPNFQFTKDAIKIISDASGNSRENNFDAELALIDLAVFHKSTIFKKYLALLTSLCPVSEQILIRRFRPGMDFTLATKCRFNELLKSNPDIIDAVLEGTLCLTPSAGWESGELGGYELYMMDDDEDNKQYLKEDVEDASVYRADDSGDSVLINDPPAWNTFNLVLRDESVLEFVKYVSWSAKSSRWDVKMKWDVKSCDEDGQEDEA
notes: Tpa1p, Saccharomyces cerevisiae, full length, 644 aa, 74 kDa; plasmid pNIC28_Tpa1p; source: E. coli BL21(DE3), purified (HisTrap, Superdex 200, MonoQ)
The stoichiometry N is the number of molecules, sites or subunits per partner or assembly. In the case of B1, the “stoichiometry N” value amounted to 2.
